{"source": "patent US20250352630A1", "biological_target": "Native MsrA/B on the surface of N. gonorrhoeae 1291 cells (N. gonorrhoeae strain 1291) (UniProt P14930)", "sequence (P14930 1-519, tags or fused parts left off)": "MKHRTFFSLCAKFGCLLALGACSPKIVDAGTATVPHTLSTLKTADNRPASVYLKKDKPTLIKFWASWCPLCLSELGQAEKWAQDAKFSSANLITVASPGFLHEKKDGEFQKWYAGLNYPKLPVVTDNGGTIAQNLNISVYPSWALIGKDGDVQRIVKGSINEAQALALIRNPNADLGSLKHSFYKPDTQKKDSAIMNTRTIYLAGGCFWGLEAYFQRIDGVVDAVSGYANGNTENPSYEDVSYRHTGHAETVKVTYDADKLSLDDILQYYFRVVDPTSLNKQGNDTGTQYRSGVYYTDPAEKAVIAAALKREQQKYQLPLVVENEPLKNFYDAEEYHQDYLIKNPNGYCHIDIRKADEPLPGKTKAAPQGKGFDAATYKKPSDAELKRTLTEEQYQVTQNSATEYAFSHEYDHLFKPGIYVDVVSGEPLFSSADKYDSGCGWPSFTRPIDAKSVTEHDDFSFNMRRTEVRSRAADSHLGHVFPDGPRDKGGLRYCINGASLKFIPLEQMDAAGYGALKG", "experiment": "whole cell ELISA, N. gonorrhoeae 1291 strains"}
{"substance": "Pre-immune mouse sera (antibody)", "values": [{"measurement": "ELISA titre vs whole cells", "value": "< 200", "unit": "titre"}]}
